Key:
[1] = molecular target: scrambled ribonuclease A from bovine pancreas (bovine) (UniProt P61823)
[2] = molecular target: scrambled egg lysozyme (Gallus gallus (Chicken)) (UniProt P00698)

Chain of UniProt P61823 (P61823 27-150 limits assumed): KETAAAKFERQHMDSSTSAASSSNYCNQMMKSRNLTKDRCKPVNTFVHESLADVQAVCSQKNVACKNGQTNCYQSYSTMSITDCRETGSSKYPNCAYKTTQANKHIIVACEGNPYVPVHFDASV

B1: polypeptide possessing protein disulfide isomerase (PDI) activity from Humicola insolens KASI (FERM BP-4239), purified from fungal cells (Example 2) (enzyme)
chain: SDVVQLKKDTFDDFIKTNDLVLAEFFAPWCGHCKALAPEYEEAATTLKEKNIKLAKVDCTEETDLCQQHGVEGYPTLKVFRGLDNVSPYKGQRKAAAITSYMIKQSLPAVSEVTKDNLEEFKKADKAVLVAYVDASDKASSEVFTQVAEKLRDNYPFGSSSDAALAEAEGVKAPAIVLYKDFDEGKAVFSEKFEVEAIEKFAKTGATPLIGEIGPETYSDYMSAGIPLAYIFAETAEERKELSDKLKPIAEAQRGVINFGTIDAKAFGAHAGNLNLKTDKFPAFAIQEVAKNQKFPFDQEKEITFEAIKAFVDDFVAGKIEPSIKSEPIPEKQEGPVTVVVAKNYNEIVLDDTKDVLIEFYAPWCGHCKALAPKYEELGALYAKSEFKDRVVIAKVDATANDVPDEIQGFPTIKLYPAGAKGQPVTYSGSRTVEDLIKFIAENGKYKAAISEDAEETSSATETTTETATKSEEAAKETATEHDEL
Refolding Ratio of Sc-RNase (%) [1]: 80% | reactivation of Sc-lysozyme (lysozyme activity on ethylene glycol chitin, absorbance at 420 nm) [2]: 12%

B2: recombinant polypeptide possessing PDI activity from E. coli JM105/pTrc99APDI (Example 8) (enzyme)
chain: B1 chain
Refolding Ratio of Sc-RNase (%) [1]: 82%
